Here are results for 41 variants from the Human Domainome abundance scans (Beltran et al. 2025).

± gives the uncertainty stated by the source.

The chains are these.
B1: POU domain, class 2, transcription factor 2, residues 200 to 269; numbered along this chain, P09086 (parent)
chain: LEELEQFARTFKQRRIKLGFTQGDVGLAMGKLYGNDFSQTTISRFEALNLSFKNMCKLKPLLEKWLNDAE

Variants of B1 are the subject of the data set. Description: abundance fitness (aPCA) (normalised: wild type 0, dead -1); higher = more abundant; growth selection in yeast, the domain comes from the species named. The conditions noted are these: Homo sapiens.
Take GEELEQFARTFKQRRIKLGFTQGDVGLAMGKLYGNDFSQTTISRFEALNLSFKNMCKLKPLLEKWLNDAE [L1G]: the abundance fitness worked out at 0.01 ± 0.078.

Turning to IEELEQFARTFKQRRIKLGFTQGDVGLAMGKLYGNDFSQTTISRFEALNLSFKNMCKLKPLLEKWLNDAE [L1I], the abundance fitness is -0.11 ± 0.46.

For the variant DEELEQFARTFKQRRIKLGFTQGDVGLAMGKLYGNDFSQTTISRFEALNLSFKNMCKLKPLLEKWLNDAE [L1D], the abundance fitness is -0.279 ± 0.19.

Take FEELEQFARTFKQRRIKLGFTQGDVGLAMGKLYGNDFSQTTISRFEALNLSFKNMCKLKPLLEKWLNDAE [L1F]: the abundance fitness is -0.028 ± 0.13.

With NEELEQFARTFKQRRIKLGFTQGDVGLAMGKLYGNDFSQTTISRFEALNLSFKNMCKLKPLLEKWLNDAE [L1N], the abundance fitness was determined as 0.008 ± 0.21.

With REELEQFARTFKQRRIKLGFTQGDVGLAMGKLYGNDFSQTTISRFEALNLSFKNMCKLKPLLEKWLNDAE [L1R], the abundance fitness was -0.169 ± 0.086.

In the case of MEELEQFARTFKQRRIKLGFTQGDVGLAMGKLYGNDFSQTTISRFEALNLSFKNMCKLKPLLEKWLNDAE [L1M], the abundance fitness is -0.081 ± 0.094.

For LNELEQFARTFKQRRIKLGFTQGDVGLAMGKLYGNDFSQTTISRFEALNLSFKNMCKLKPLLEKWLNDAE [E2N], the abundance fitness came to 0.259 ± 0.3.

On to LGELEQFARTFKQRRIKLGFTQGDVGLAMGKLYGNDFSQTTISRFEALNLSFKNMCKLKPLLEKWLNDAE [E2G], for which the abundance fitness was -0.046 ± 0.086.

As for LCELEQFARTFKQRRIKLGFTQGDVGLAMGKLYGNDFSQTTISRFEALNLSFKNMCKLKPLLEKWLNDAE [E2C], the abundance fitness is -0.699 ± 0.28.

On to LPELEQFARTFKQRRIKLGFTQGDVGLAMGKLYGNDFSQTTISRFEALNLSFKNMCKLKPLLEKWLNDAE [E2P], for which the abundance fitness was -0.689 ± 0.19.

Regarding LKELEQFARTFKQRRIKLGFTQGDVGLAMGKLYGNDFSQTTISRFEALNLSFKNMCKLKPLLEKWLNDAE [E2K], the abundance fitness is -0.02 ± 0.16.

For the variant LDELEQFARTFKQRRIKLGFTQGDVGLAMGKLYGNDFSQTTISRFEALNLSFKNMCKLKPLLEKWLNDAE [E2D], the abundance fitness was found to be 0.054 ± 0.097.

With LRELEQFARTFKQRRIKLGFTQGDVGLAMGKLYGNDFSQTTISRFEALNLSFKNMCKLKPLLEKWLNDAE [E2R], the abundance fitness is -0.066 ± 0.13.

As for LWELEQFARTFKQRRIKLGFTQGDVGLAMGKLYGNDFSQTTISRFEALNLSFKNMCKLKPLLEKWLNDAE [E2W], the abundance fitness came out at 0.039 ± 0.11.

In the case of LAELEQFARTFKQRRIKLGFTQGDVGLAMGKLYGNDFSQTTISRFEALNLSFKNMCKLKPLLEKWLNDAE [E2A], the abundance fitness was -0.14 ± 0.092.

Consider LQELEQFARTFKQRRIKLGFTQGDVGLAMGKLYGNDFSQTTISRFEALNLSFKNMCKLKPLLEKWLNDAE [E2Q], for which the abundance fitness was -0.171 ± 0.17.

In the case of LHELEQFARTFKQRRIKLGFTQGDVGLAMGKLYGNDFSQTTISRFEALNLSFKNMCKLKPLLEKWLNDAE [E2H], the abundance fitness was -0.366 ± 0.094.

For the variant LYELEQFARTFKQRRIKLGFTQGDVGLAMGKLYGNDFSQTTISRFEALNLSFKNMCKLKPLLEKWLNDAE [E2Y], the abundance fitness is -0.106 ± 0.24.

As for LMELEQFARTFKQRRIKLGFTQGDVGLAMGKLYGNDFSQTTISRFEALNLSFKNMCKLKPLLEKWLNDAE [E2M], the abundance fitness is 0.173 ± 0.095.

Take LTELEQFARTFKQRRIKLGFTQGDVGLAMGKLYGNDFSQTTISRFEALNLSFKNMCKLKPLLEKWLNDAE [E2T]: the abundance fitness was -0.274 ± 0.094.

Consider LVELEQFARTFKQRRIKLGFTQGDVGLAMGKLYGNDFSQTTISRFEALNLSFKNMCKLKPLLEKWLNDAE [E2V], for which the abundance fitness was -0.062 ± 0.046.

As to LEEFEQFARTFKQRRIKLGFTQGDVGLAMGKLYGNDFSQTTISRFEALNLSFKNMCKLKPLLEKWLNDAE [L4F], the abundance fitness is -0.055 ± 0.067.

As to LEEGEQFARTFKQRRIKLGFTQGDVGLAMGKLYGNDFSQTTISRFEALNLSFKNMCKLKPLLEKWLNDAE [L4G], the abundance fitness was -0.655 ± 0.058.

On to LEECEQFARTFKQRRIKLGFTQGDVGLAMGKLYGNDFSQTTISRFEALNLSFKNMCKLKPLLEKWLNDAE [L4C], for which the abundance fitness is -0.784 ± 0.11.

Take LEEEEQFARTFKQRRIKLGFTQGDVGLAMGKLYGNDFSQTTISRFEALNLSFKNMCKLKPLLEKWLNDAE [L4E]: the abundance fitness was -0.523 ± 0.078.

Take LEEMEQFARTFKQRRIKLGFTQGDVGLAMGKLYGNDFSQTTISRFEALNLSFKNMCKLKPLLEKWLNDAE [L4M]: the abundance fitness is -0.032 ± 0.059.

Consider LEEDEQFARTFKQRRIKLGFTQGDVGLAMGKLYGNDFSQTTISRFEALNLSFKNMCKLKPLLEKWLNDAE [L4D], for which the abundance fitness is -0.64 ± 0.19.

On to LEESEQFARTFKQRRIKLGFTQGDVGLAMGKLYGNDFSQTTISRFEALNLSFKNMCKLKPLLEKWLNDAE [L4S], for which the abundance fitness is -0.253 ± 0.055.

In the case of LEEVEQFARTFKQRRIKLGFTQGDVGLAMGKLYGNDFSQTTISRFEALNLSFKNMCKLKPLLEKWLNDAE [L4V], the abundance fitness is -0.08 ± 0.039.

With LEEKEQFARTFKQRRIKLGFTQGDVGLAMGKLYGNDFSQTTISRFEALNLSFKNMCKLKPLLEKWLNDAE [L4K], the abundance fitness was -0.797 ± 0.12.

As for LEEAEQFARTFKQRRIKLGFTQGDVGLAMGKLYGNDFSQTTISRFEALNLSFKNMCKLKPLLEKWLNDAE [L4A], the abundance fitness was -0.181 ± 0.045.

LEENEQFARTFKQRRIKLGFTQGDVGLAMGKLYGNDFSQTTISRFEALNLSFKNMCKLKPLLEKWLNDAE [L4N]: the abundance fitness is -0.763 ± 0.38.

Take LEEPEQFARTFKQRRIKLGFTQGDVGLAMGKLYGNDFSQTTISRFEALNLSFKNMCKLKPLLEKWLNDAE [L4P]: the abundance fitness was -0.367 ± 0.055.

Consider LEEWEQFARTFKQRRIKLGFTQGDVGLAMGKLYGNDFSQTTISRFEALNLSFKNMCKLKPLLEKWLNDAE [L4W], for which the abundance fitness was -0.201 ± 0.04.

Take LEEQEQFARTFKQRRIKLGFTQGDVGLAMGKLYGNDFSQTTISRFEALNLSFKNMCKLKPLLEKWLNDAE [L4Q]: the abundance fitness is -0.233 ± 0.07.

Consider LEEHEQFARTFKQRRIKLGFTQGDVGLAMGKLYGNDFSQTTISRFEALNLSFKNMCKLKPLLEKWLNDAE [L4H], for which the abundance fitness worked out at 0.052 ± 0.18.

As to LEEREQFARTFKQRRIKLGFTQGDVGLAMGKLYGNDFSQTTISRFEALNLSFKNMCKLKPLLEKWLNDAE [L4R], the abundance fitness is -0.485 ± 0.038.

With LEEYEQFARTFKQRRIKLGFTQGDVGLAMGKLYGNDFSQTTISRFEALNLSFKNMCKLKPLLEKWLNDAE [L4Y], the abundance fitness was -0.408 ± 0.19.

Consider LEEIEQFARTFKQRRIKLGFTQGDVGLAMGKLYGNDFSQTTISRFEALNLSFKNMCKLKPLLEKWLNDAE [L4I], for which the abundance fitness turned out to be 0.012 ± 0.1.

Take LEETEQFARTFKQRRIKLGFTQGDVGLAMGKLYGNDFSQTTISRFEALNLSFKNMCKLKPLLEKWLNDAE [L4T]: the abundance fitness is -0.11 ± 0.048.
